In patent US20240384250A1, “FIBROBLAST GROWTH FACTOR 23 MODULATING COMPOUNDS” (THE UAB RESEARCH FOUNDATION, priority 2021, published 2024):
“Also recorded” adds a separate entry of the source.

T1: FGF23 binding to FGFR4 (Homo sapiens, UniProt P22455+Q9GZV9)
T1 construct: Fc-coupled FGFR ectodomains were immobilized on protein A/G beads; purchased R&D Systems 2604FG025/CF or 2629FG025/CF; 685FR050
T1 sequence (Q9GZV9 25-251): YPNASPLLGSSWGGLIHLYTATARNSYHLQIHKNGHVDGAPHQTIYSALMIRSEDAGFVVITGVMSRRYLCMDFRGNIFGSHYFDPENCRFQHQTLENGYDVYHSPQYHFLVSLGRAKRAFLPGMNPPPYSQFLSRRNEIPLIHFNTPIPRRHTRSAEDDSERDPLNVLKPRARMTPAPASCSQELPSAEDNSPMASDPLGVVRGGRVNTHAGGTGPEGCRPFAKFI
T1 sequence (P22455 22-369 limits assumed): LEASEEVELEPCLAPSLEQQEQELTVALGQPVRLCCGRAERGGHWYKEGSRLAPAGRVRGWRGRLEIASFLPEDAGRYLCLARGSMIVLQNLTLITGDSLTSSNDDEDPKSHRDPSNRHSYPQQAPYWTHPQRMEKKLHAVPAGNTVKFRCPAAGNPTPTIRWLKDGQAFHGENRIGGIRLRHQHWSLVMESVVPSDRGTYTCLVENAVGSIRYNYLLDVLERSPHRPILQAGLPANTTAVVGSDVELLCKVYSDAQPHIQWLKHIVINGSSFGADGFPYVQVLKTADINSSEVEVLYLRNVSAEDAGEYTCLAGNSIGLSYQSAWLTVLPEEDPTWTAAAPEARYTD

B1: sKL: recombinant soluble α-klotho ectodomain, mouse aa 35-982 and human aa 34-981, FLAG- or Strep/His-tagged, purified from HEK293 cells (protein)
chain: EPGDGAQTWARFSRPPAPEAAGLFQGTFPDGFLWAVGSAAYQTEGGWQQHGKGASIWDTFTHHPLAPPGDSRNASLPLGAPSPLQPATGDVASDSYNNVFRDTEALRELGVTHYRFSISWARVLPNGSAGVPNREGLRYYRRLLERLRELGVQPVVTLYHWDLPQRLQDAYGGWANRALADHFRDYAELCFRHFGGQVKYWITIDNPYVVAWHGYATGRLAPGIRGSPRLGYLVAHNLLLAHAKVWHLYNTSFRPTQGGQVSIALSSHWINPRRMTDHSIKECQKSLDFVLGWFAKPVFIDGDYPESMKNNLSSILPDFTESEKKFIKGTADFFALCFGPTLSFQLLDPHMKFRQLESPNLRQLLSWIDLEFNHPQIFIVENGWFVSGTTKRDDAKYMYYLKKFIMETLKAIKLDGVDVIGYTAWSLMDGFEWHRGYSIRRGLFYVDFLSQDKMLLPKSSALFYQKLIEKNGFPPLPENQPLEGTFPCDFAWGVVDNYIQVDTTLSQFTDLNVYLWDVHHSKRLIKVDGVVTKKRKSYCVDFAAIQPQIALLQEMHVTHFRFSLDWALILPLGNQSQVNHTILQYYRCMASELVRVNITPVVALWQPMAPNQGLPRLLARQGAWENPYTALAFAEYARLCFQELGHHVKLWITMNEPYTRNMTYSAGHNLLKAHALAWHVYNEKFRHAQNGKISIALQADWIEPACPFSQKDKEVAERVLEFDIGWLAEPIFGSGDYPWVMRDWLNQRNNFLLPYFTEDEKKLIQGTFDFLALSHYTTILVDSEKEDPIKYNDYLEVQEMTDITWLNSPSQVAVVPWGLRKVLNWLKFKYGDLPMYIISNGIDDGLHAEDDQLRVYYMQNYINEALKAHILDGINLCGYFAYSFNDRTAPRFGLYRYAADQFEPKASMKHYRKIIDSNGFPGPETLERFCPEEFTVCTECSFFHTRKS
modifications: left off: small tags and cut ends
notes: recombinant soluble α-klotho ectodomain, mouse aa 35-982 and human aa 34-981, FLAG- or Strep/His-tagged, purified from HEK293 cells
B2: FGF23: recombinant fibroblast growth factor 23 protein from R&D Systems (protein)
chain: YPDTSPLLGSNWGSLTHLYTATARTSYHLQIHRDGHVDGTPHQTIYSALMITSEDAGSVVITGAMTRRFLCMDLHGNIFGSLHFSPENCKFRQWTLENGYDVYLSQKHHYLVSLGRAKRIFQPGTNPPPFSQFLARRNEVPLLHFYTVRPRRHTRSAEDPPERDPLNVLKPRPRATPVPVSCSRELPSAEEGGPAASDPLGVLRRGRGDARGGAGGADRCRPFPRFV

Experiments:
[1] = test system: phosphorylated ERK in HEK293T cells; assay: ERK phosphorylation in serum-starved HEK293 cells (Western blotting); format: cell-based, human
Procedure: The sample (20 μl) was loaded onto Mini-PROTEAN TGX Precast Gel 4-20% for experiments with <9 samples (4568094, Bio-Rad) or Criterion TGX Precast Gel 4-20% (5678094, Bio-Rad) for experiments with >9 samples. Gels were run in 1× Tris/Glycine/SDS buffer (1610732, Bio-Rad) at 150 V and stopped when the sample dye reached the end of the gel. Gels were removed and electrotransferred via a semi-dry cassette (1703940, Bio-Rad) in I× Tris/Glycine buffer (1610734, Bio-Rad) with 20% methanol. Gels were transferred onto polyvinylidene diflouride membranes (IPVH00010, Millipore) at 20 V for 1 hour. Membranes were then blocked in 5% dried milk with 0.5% Tween 20 diluted in Tris-buffered saline (TBST; pH 7.5) for 1 hour and probed with antibodies against specific antigens at 1:1000 in TBST with 5% dried milk. Blots were washed 3× for 5 minutes in TBST and probed with HRP-coupled secondary antibodies against specific species at 1:10,000 in TBST with 5% dried milk. Membranes were imaged on the SRX-101A X-ray film developer (Konica Minolta).
To determine the cellular activity of paracrine FGFs, the activation/phosphorylation of ERK in HEK293 cells after treatment was studied. HEK293 cells were seeded in 6-well plates in DMEM (26140079, Gibco) supplemented with I× Pen/Strep (15140122, Gibco) and 10% FBS (26140079, Gibco) and grown for 48 hours. Upon reaching 80% confluence, cells were serum starved overnight in DMEM and 1× Pen/Strep without FBS. The medium was changed, and cells were treated with sKL at 2 μg/ml or vehicle (sKL elution buffer: 25 mM Tris ph 8.0, 500 mM NaCl) for 15 minutes. Cells were then treated with various FGFs at 1.1 nM for 10 minutes. Cells were lysed in 200 μl of RIPA with the addition of a protease inhibitor (11836153001, Roche) and phosphatase inhibitors (P5726 and P0044, Sigma-Aldrich) for 30 minutes. The mixture was then centrifuged at 20,000 g for 60 minutes to remove all cell debris. One hundred microliters of 1× Laemmli sample buffer (1610737, Bio-Rad) with 1.42 M 2-mercaptoethanol was added, and samples were boiled for 5 minutes. Twenty microliters of samples was loaded onto 12% SDS-PAGE gels and analyzed using Western blotting for total and phosphorylated ERK.

FGF23 binding to FGFR4 = biological target: T1, FGF23 binding to FGFR4; assay: Plate-based binding, FGF23 coated, then sKL, heparin or PBS, then Fc-FGFR; conditions: with sKL, with heparin 0.4 USP, or alone
Procedure: Proteins were coated on 96-well plates (MaxiSorp; 439454, Thermo Fisher Scientific), and proteins were added to wells in 100 μl of enzyme-linked immunosorbent assay (ELISA) coating buffer (E107, Bethyl Laboratories) with a lid placed overtop and incubated at 4° C. overnight. Plates were washed 5× with 350 μl of assay buffer (50 mM Tris [pH 7.4], 200 mM NaCl, 0.01% Tween 20) on a 50 TS microplate washer (BioTek). Plates were blocked for 1 hour in 200 μl of assay buffer with 0.5% BSA. Plates were washed as before, and proteins were incubated on plates in 100 μl of assay buffer with 0.5% BSA. Proteins or heparin was incubated in orders described in the respective figure legends. Assays using FLAG-tag-based detection were incubated with anti-FLAG coupled to HRP at 1:20,000, and assays using Fc detection were incubated with anti-human Fc coupled to HRP at 1:10,000. Plates were washed as above, and 100 μl of 3,3′,5,5′-tetramethylbenzidine (TMB) substrate (E102, Bethyl Laboratories) was added for 15 to 20 minutes until positive wells developed a dark blue color. Reactions were stopped with ELISA stop solution (E115, Bethyl Laboratories) and analyzed using the Synergy HI plate reader (BioTek) at 450 nm wavelength. […] As a control to remove background absorbance values, wells were coated with an equal amount of BSA to match the amount of protein coated in experimental wells and treated the same as experimental wells. To study the effects of sKL on the binding between paracrine FGFs and FGFRs, plates were run as above except coated with paracrine FGFs. Fc-FGFR1 was preincubated with sKL or vehicle for 60 minutes, and then the combination was added to wells and the assay was run as before.

Molecule	phospho-ERK levels in cells treated with FGF2 ([1]; sKL 2 μg/ml 15 minutes before FGF2)	phospho-ERK levels in cells treated with FGF5 ([1]; sKL 2 μg/ml 15 minutes before FGF5)	ERK phosphorylation in cells incubated with FGF23 ([1]; sKL 2 μg/ml 15 minutes before FGF23)	phospho-ERK levels in cells treated with FGF8b ([1]; sKL 15 minutes before FGF8b)	binding of coated FGF23 to Fc-FGFR4 (FGF23 binding to FGFR4)	ERK phosphorylation induced by FGF ([1]; FGF 1.1 nM for 10 minutes, absence of sKL)
B1	decreased phospho-ERK levels; also recorded: did not occur	decreased phospho-ERK levels; also recorded: did not occur	induced ERK phosphorylation; also recorded: increased pERK levels	did not occur	highest FGF23-sKL affinities; also recorded: increased; also recorded: the strongest	
B2					low affinity; also recorded: weak affinity	had no effect
